{"source": "paper PMC4627068", "about": "(Nucleic Acids Research, 2015)", "binders": {"B1": {"name": "ω2 (homodimeric form of the plasmid pSM19035 ω protein) (natural protein, Streptococcus pyogenes, UniProt Q57468 1-71, looked up)", "chain": "MIVGNLGAQKAKRNDTPISAKKDIMGDKTVRVRADLHHIIKIETAKNGGNVKEVMDQALEEYIRKYLPDKL"}}, "key": {"[1]": {"target": "the molecule itself", "assay": "far-Western, overlay or dot blot"}, "[2]": {"target": "β' subunit of Bacillus subtilis RNAP-σ^A (Bacillus subtilis, UniProt P37871 1-1199)", "sequence (P37871 whole entry)": "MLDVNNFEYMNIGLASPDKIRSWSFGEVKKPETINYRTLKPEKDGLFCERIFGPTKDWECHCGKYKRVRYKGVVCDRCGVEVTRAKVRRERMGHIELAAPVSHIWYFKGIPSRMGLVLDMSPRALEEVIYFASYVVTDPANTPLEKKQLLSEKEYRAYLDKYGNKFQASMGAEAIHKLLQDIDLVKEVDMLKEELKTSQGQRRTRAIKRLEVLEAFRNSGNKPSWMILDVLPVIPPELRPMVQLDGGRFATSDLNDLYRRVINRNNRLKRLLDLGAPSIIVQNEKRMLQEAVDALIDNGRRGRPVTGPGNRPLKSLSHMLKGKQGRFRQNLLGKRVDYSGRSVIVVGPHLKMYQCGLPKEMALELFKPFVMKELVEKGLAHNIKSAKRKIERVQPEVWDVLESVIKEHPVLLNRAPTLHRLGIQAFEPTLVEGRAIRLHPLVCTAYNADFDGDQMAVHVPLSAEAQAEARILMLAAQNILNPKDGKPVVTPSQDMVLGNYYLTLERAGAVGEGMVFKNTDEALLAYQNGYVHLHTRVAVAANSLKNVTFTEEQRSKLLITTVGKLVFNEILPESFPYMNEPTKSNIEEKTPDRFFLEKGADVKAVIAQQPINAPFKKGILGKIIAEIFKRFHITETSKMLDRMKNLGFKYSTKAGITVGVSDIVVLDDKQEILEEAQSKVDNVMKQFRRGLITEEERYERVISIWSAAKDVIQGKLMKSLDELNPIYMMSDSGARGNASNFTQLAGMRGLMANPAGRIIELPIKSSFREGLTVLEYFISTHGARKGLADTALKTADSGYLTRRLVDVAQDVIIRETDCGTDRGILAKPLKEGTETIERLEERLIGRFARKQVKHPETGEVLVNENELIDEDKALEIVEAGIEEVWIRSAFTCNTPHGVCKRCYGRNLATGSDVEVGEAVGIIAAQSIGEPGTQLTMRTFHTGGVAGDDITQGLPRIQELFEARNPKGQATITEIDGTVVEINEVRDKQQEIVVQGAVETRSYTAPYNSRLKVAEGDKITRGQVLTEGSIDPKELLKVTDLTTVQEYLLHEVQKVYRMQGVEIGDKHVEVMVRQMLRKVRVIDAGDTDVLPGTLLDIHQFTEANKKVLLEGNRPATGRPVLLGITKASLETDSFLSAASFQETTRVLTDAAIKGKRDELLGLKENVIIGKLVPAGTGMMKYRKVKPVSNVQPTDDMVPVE", "assay": "far-Western, overlay or dot blot"}}, "data": [{"binder": "B1", "values": [{"measurement": "binding result", "setting": "[1]", "value": "binds"}, {"measurement": "binding result", "setting": "[2]", "value": "binds"}]}]}
